Experimental data published in patent publication US20220040297A1 (Chugai, published 2022).

B1: CE115HA000 D101I (antibody, name in Kabat numbering, V domains shown)
VH: QVQLVESGGGVVQPGRSLRLSCAASGFTFSNAWMHWVRQAPGKGLEWVAQIKAKSNNYATYYAESVKGRFTISRDDSKNSLYLQMNSLKTEDTAVYYCRYVHYGAYYGVIAWGQGTTVTVSS
VL: DIVMTQSPLSLPVTPGEPASISCRSSQSLVHSNRNTYLHWYQQKPGQAPRLLIYKVSNRFSGVPDRFSGSGSGTDFTLKISRVEAEDVGVYYCGQGTQVPYTFGQGTKLEIK
B2: CE115HA000 D101M (antibody, name in Kabat numbering, V domains shown)
VH: QVQLVESGGGVVQPGRSLRLSCAASGFTFSNAWMHWVRQAPGKGLEWVAQIKAKSNNYATYYAESVKGRFTISRDDSKNSLYLQMNSLKTEDTAVYYCRYVHYGAYYGVMAWGQGTTVTVSS
VL: DIVMTQSPLSLPVTPGEPASISCRSSQSLVHSNRNTYLHWYQQKPGQAPRLLIYKVSNRFSGVPDRFSGSGSGTDFTLKISRVEAEDVGVYYCGQGTQVPYTFGQGTKLEIK
B3: CE115HA000 D101P (antibody, name in Kabat numbering, V domains shown)
VH: QVQLVESGGGVVQPGRSLRLSCAASGFTFSNAWMHWVRQAPGKGLEWVAQIKAKSNNYATYYAESVKGRFTISRDDSKNSLYLQMNSLKTEDTAVYYCRYVHYGAYYGVPAWGQGTTVTVSS
VL: DIVMTQSPLSLPVTPGEPASISCRSSQSLVHSNRNTYLHWYQQKPGQAPRLLIYKVSNRFSGVPDRFSGSGSGTDFTLKISRVEAEDVGVYYCGQGTQVPYTFGQGTKLEIK
B4: CE115HA000 D101Q (antibody, name in Kabat numbering, V domains shown)
VH: QVQLVESGGGVVQPGRSLRLSCAASGFTFSNAWMHWVRQAPGKGLEWVAQIKAKSNNYATYYAESVKGRFTISRDDSKNSLYLQMNSLKTEDTAVYYCRYVHYGAYYGVQAWGQGTTVTVSS
VL: DIVMTQSPLSLPVTPGEPASISCRSSQSLVHSNRNTYLHWYQQKPGQAPRLLIYKVSNRFSGVPDRFSGSGSGTDFTLKISRVEAEDVGVYYCGQGTQVPYTFGQGTKLEIK
B5: CE115HA000 D101T (antibody, name in Kabat numbering, V domains shown)
VH: QVQLVESGGGVVQPGRSLRLSCAASGFTFSNAWMHWVRQAPGKGLEWVAQIKAKSNNYATYYAESVKGRFTISRDDSKNSLYLQMNSLKTEDTAVYYCRYVHYGAYYGVTAWGQGTTVTVSS
VL: DIVMTQSPLSLPVTPGEPASISCRSSQSLVHSNRNTYLHWYQQKPGQAPRLLIYKVSNRFSGVPDRFSGSGSGTDFTLKISRVEAEDVGVYYCGQGTQVPYTFGQGTKLEIK
B6: CE115HA000 D101V (antibody, name in Kabat numbering, V domains shown)
VH: QVQLVESGGGVVQPGRSLRLSCAASGFTFSNAWMHWVRQAPGKGLEWVAQIKAKSNNYATYYAESVKGRFTISRDDSKNSLYLQMNSLKTEDTAVYYCRYVHYGAYYGVVAWGQGTTVTVSS
VL: DIVMTQSPLSLPVTPGEPASISCRSSQSLVHSNRNTYLHWYQQKPGQAPRLLIYKVSNRFSGVPDRFSGSGSGTDFTLKISRVEAEDVGVYYCGQGTQVPYTFGQGTKLEIK
B7: CE115HA000 D101Y (antibody, name in Kabat numbering, V domains shown)
VH: QVQLVESGGGVVQPGRSLRLSCAASGFTFSNAWMHWVRQAPGKGLEWVAQIKAKSNNYATYYAESVKGRFTISRDDSKNSLYLQMNSLKTEDTAVYYCRYVHYGAYYGVYAWGQGTTVTVSS
VL: DIVMTQSPLSLPVTPGEPASISCRSSQSLVHSNRNTYLHWYQQKPGQAPRLLIYKVSNRFSGVPDRFSGSGSGTDFTLKISRVEAEDVGVYYCGQGTQVPYTFGQGTKLEIK
B8: CE115HA000 E61A (antibody, name in Kabat numbering, V domains shown)
VH: QVQLVESGGGVVQPGRSLRLSCAASGFTFSNAWMHWVRQAPGKGLEWVAQIKAKSNNYATYYAASVKGRFTISRDDSKNSLYLQMNSLKTEDTAVYYCRYVHYGAYYGVDAWGQGTTVTVSS
VL: DIVMTQSPLSLPVTPGEPASISCRSSQSLVHSNRNTYLHWYQQKPGQAPRLLIYKVSNRFSGVPDRFSGSGSGTDFTLKISRVEAEDVGVYYCGQGTQVPYTFGQGTKLEIK

Biological target: T1, CD3ε homodimer protein (human, UniProt P07766 23-126, limits assumed, sulfo-tag or biotin label in some ECL assays)
T1 construct: also called human CD3ε homodimer protein; CD3 (CD3ε)
Test: SPR, CD3ε homodimer on chip;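 note: biacore SPR with antibody variants flowed as analyte over amine-coupled CD3ε homodimer on a CM chip, bound amount of each single-residue H chain variant over that of parent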

T1 sequence (P07766 23-126 limits assumed): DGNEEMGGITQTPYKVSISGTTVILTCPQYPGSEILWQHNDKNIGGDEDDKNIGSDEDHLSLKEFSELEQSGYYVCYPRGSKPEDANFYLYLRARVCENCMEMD

| Binder | ratio of amounts bound vs CE115HA000 |
| --- | --- |
| B1 | 1.18 |
| B2 | 1.2 |
| B3 | 0.2 |
| B4 | 2.25 |
| B5 | 0.79 |
| B6 | 1.33 |
| B7 | 6.49 |
| B8 | 1.09 |
